These results are taken from patent KR20160093502A (dated 2016).

The target in the test is T1, EPRS (glutamyl-prolyl tRNA synthetase), human 세포에서 원래 발현된 EPRS (Hela cell lysate) (human, UniProt P07814 1-1512).
T1 construct: Endogenous protein in 50 ug HeLa lysate, denatured on a western blot; also called endogenous EPRS in HeLa cell lysate
As to the kind of experiment: western blot on HeLa cell lysate (clones from panning on EPRS WHEP domain antigen).

T1 sequence (P07814 whole entry): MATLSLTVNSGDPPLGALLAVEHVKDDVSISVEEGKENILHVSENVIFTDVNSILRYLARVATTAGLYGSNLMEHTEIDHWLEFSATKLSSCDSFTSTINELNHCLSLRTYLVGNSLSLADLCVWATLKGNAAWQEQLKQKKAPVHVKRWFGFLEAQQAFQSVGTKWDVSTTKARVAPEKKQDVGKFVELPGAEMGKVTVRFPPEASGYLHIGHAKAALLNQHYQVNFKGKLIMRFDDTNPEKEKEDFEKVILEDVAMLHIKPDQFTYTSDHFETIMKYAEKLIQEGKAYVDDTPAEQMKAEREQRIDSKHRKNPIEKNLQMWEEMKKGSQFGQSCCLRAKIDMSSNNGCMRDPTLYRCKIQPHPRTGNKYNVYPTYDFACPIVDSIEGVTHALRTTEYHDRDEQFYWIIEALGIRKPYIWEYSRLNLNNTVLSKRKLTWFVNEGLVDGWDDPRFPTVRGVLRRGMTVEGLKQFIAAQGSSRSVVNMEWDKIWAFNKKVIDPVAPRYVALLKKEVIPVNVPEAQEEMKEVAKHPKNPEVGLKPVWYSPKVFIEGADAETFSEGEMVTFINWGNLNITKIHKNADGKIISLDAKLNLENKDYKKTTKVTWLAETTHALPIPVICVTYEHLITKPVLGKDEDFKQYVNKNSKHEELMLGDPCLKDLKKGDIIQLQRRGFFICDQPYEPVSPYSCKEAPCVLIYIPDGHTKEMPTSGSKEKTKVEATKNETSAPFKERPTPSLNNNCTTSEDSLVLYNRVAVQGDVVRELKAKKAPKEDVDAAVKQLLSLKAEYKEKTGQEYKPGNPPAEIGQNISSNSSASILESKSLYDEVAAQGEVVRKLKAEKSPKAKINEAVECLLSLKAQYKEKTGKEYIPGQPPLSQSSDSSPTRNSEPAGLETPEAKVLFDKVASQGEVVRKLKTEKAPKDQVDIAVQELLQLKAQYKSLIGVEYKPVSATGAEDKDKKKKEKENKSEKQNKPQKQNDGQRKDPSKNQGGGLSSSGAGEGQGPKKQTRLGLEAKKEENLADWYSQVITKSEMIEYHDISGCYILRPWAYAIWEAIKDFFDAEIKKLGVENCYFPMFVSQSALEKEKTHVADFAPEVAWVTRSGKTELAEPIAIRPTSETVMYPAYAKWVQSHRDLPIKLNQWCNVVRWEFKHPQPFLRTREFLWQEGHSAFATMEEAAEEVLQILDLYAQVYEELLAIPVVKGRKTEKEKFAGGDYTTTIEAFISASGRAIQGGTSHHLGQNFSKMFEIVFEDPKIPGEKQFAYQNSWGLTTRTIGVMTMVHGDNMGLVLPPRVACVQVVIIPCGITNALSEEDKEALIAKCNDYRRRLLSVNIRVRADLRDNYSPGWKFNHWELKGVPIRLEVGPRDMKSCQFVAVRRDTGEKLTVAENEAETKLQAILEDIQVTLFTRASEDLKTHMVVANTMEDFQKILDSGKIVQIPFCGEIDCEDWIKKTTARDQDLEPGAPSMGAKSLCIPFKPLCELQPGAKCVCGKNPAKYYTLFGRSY

B1: SEQ ID NO 42 (scFv)
scFv: EVQLLESGGGLVQPGGSLRLSCAVSGFTFSSYYMSWVRQAPGKGLEWVSLISPGSGSIYYADSVKGRFTISRDNSKNTLYLQMNSLRAEDTAVYYCARTGWLFDYWGQGTLVTVNSGGGGSGGGGSGGGGSQSVLTQPPSASGTPGQRVTISCSGSSSNIGNNAVNWYQQLPGTAPKLLIYSNSHRPSGVPDRFSGSKSGTSASLAISGLRSEDEADYYCGSWDASLNGYVFGGGTKLTVL
On to B1, for which the binding result is listed as “binds”.

B2: SEQ ID NO 28 (scFv)
scFv: EVQLLESGGGLVQPGGSLRLSCAASGFTFSNYAMSWVRQAPGKGLEWVSGIYHGGGNKYYADSVKGRFTISRDNSKNTLYLQMNSLRAEDTAVYYCARTRTLFDYWGQGTLVTVSSGGGGSGGGGSGGGGSQSVLTQPPSASGTPGQRVTISCTGSSSNIGNNAVSWYQQLPGTAPKLLIYANSHRPSGVPDRFSGSKSGTSASLAISGLRSEDEADYYCGTWDASLSGYVFGGGTKLTVL
Take B2: the binding result is “binds”.
